The source of these data is US20070042930A1, “Effect of beta-glucan on stem cell recruitment and tissue repair” (priority 2002, published 2007).

The assay relates to complement. As to the kind of experiment: G-CSF mobilization: complement activation in bone marrow. Type of assay: in vivo, mice.

B1: G-CSF: used for G-CSF-mediated stem cell mobilization (bone marrow transplantation) (protein, UniProt P09919 31-207, looked up)
Granulocyte …: TPLGPASSLPQSFLLKCLEQVRKIQGDGAALQEKLVSECATYKLCHPEELVLLGHSLGIPWAPLSSCPSQALQLAGCLSQLHSGLFLYQGLLQALEGISPELGPTLDTLQLDVADFATTIWQQMEELGMAPALQPTQGAMPAFASAFQRRAGGVLVASHLQSFLEVSYRVLRHLAQP
As to B1, the “complement activation in bone marrow” value reads like this: (G-CSF mobilization, FIG. 8A and 8B) “stimulates complement activation in bone marrow with iC3b deposition on stromal cells”; (immunoglobulin-deficient SCID mice, FIG. 9A through 9F) “does not activate complement”.
